We go through one molecule from paper PMC9860310 (Proceedings of the National Academy of Sciences of the …, 2022).

The assay has as its target GroEL (Escherichia coli, UniProt P0A6F5 1-548). Kind of assay: reconstitution of the complex.

GroEL, sequence (P0A6F5 whole entry): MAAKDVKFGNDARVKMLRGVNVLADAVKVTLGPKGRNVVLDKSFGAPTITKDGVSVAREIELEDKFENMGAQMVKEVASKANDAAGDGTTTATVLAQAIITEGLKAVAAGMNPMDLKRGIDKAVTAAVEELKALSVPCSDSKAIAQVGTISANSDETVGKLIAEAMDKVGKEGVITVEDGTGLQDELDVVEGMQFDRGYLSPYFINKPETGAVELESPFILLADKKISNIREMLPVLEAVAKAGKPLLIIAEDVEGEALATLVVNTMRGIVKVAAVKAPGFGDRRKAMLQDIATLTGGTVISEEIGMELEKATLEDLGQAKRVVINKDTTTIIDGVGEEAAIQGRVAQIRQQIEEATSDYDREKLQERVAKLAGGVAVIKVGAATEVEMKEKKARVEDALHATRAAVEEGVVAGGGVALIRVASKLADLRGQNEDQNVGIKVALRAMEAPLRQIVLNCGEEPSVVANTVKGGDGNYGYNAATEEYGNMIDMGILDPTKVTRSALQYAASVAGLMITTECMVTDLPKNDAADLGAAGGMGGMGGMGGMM

B1: GroES (natural protein, Escherichia coli, UniProt P0A6F9 1-97, looked up)
chain: MNIRPLHDRVIVKRKEVETKSAGGIVLTGSAAAKSTRGEVLAVGNGRILENGEVKPLDVKVGDIVIFNDGYGVKSEKIDNEEVLIMSESDILAIVEA
In the case of B1, the binding result was “binds”.
